{"source": "patent US20240270821A1", "about": "“GIP/GLP1/GCG TRI-RECEPTOR AGONISTS AND USES THEREOF” (priority 2023, published 2024)", "binders": {"B1": {"name": "Example 660 (SEQ ID NO: 666) (peptide)", "chain": "YXQGTXTSDXSILLDKKAQXAFIEYLEEGGPSSGAPPPEGTGE", "modifications": "synthetic construct; SITE 2: note = 2-Aminoisobutyric Acid; SITE 6: note = alpha-methyl-2-fluoro-L-phenylalanine; SITE 10: note = 3-(4-Pyridyl)-L-alanine; SITE 17: note = Lysine is chemically modified through conjugation of the epsilon-amino group of the Lysine side chain with (gamma-Glu)2-CO-(CH2)1"}, "B2": {"name": "Example 665 (SEQ ID NO: 671) (peptide)", "chain": "B1 chain with K16X, Y25X, E39S", "modifications": "synthetic construct; SITE 2: note = 2-Aminoisobutyric Acid; SITE 6: note = alpha-methyl-2-fluoro-L-phenylalanine; SITE 10: note = 3-(4-Pyridyl)-L-alanine; SITE 16: note = L-ornithine; SITE 17: note = Lysine is chemically modified through conjugation of the epsilon-amino group of the Lysine side chai"}, "B3": {"name": "Example 664 (SEQ ID NO: 670) (peptide)", "chain": "B1 chain with Y25X, E39S", "modifications": "synthetic construct; SITE 2: note = 2-Aminoisobutyric Acid; SITE 6: note = alpha-methyl-2-fluoro-L-phenylalanine; SITE 10: note = 3-(4-Pyridyl)-L-alanine; SITE 17: note = Lysine is chemically modified through conjugation of the epsilon-amino group of the Lysine side chain with (gamma-Glu)2-CO-(CH2)1"}, "B4": {"name": "Example 662 (SEQ ID NO: 668) (peptide)", "chain": "B1 chain with E39S", "modifications": "synthetic construct; SITE 2: note = 2-Aminoisobutyric Acid; SITE 6: note = alpha-methyl-2-fluoro-L-phenylalanine; SITE 10: note = 3-(4-Pyridyl)-L-alanine; SITE 17: note = Lysine is chemically modified through conjugation of the epsilon-amino group of the Lysine side chain with (2-[2-(2-Amino-ethoxy))"}, "B5": {"name": "Example 661 (SEQ ID NO: 667) (peptide)", "chain": "B1 chain with E27X, E39S", "modifications": "synthetic construct; SITE 2: note = 2-Aminoisobutyric Acid; SITE 6: note = alpha-methyl-2-fluoro-L-phenylalanine; SITE 10: note = 3-(4-Pyridyl)-L-alanine; SITE 17: note = Lysine is chemically modified through conjugation of the epsilon-amino group of the Lysine side chain with (gamma-Glu)2-CO-(CH2)1"}, "B6": {"name": "Example 663 (SEQ ID NO: 669) (peptide)", "chain": "B1 chain with E27X, E39S", "modifications": "synthetic construct; SITE 2: note = 2-Aminoisobutyric Acid; SITE 6: note = alpha-methyl-2-fluoro-L-phenylalanine; SITE 10: note = 3-(4-Pyridyl)-L-alanine; SITE 17: note = Lysine is chemically modified through conjugation of the epsilon-amino group of the Lysine side chain with (2-[2-(2-Amino-ethoxy))"}, "B7": {"name": "Example 666 (SEQ ID NO: 672) (peptide)", "chain": "B1 chain with Y25X, E39S, T41S", "modifications": "synthetic construct; SITE 2: note = 2-Aminoisobutyric Acid; SITE 6: note = alpha-methyl-2-fluoro-L-phenylalanine; SITE 10: note = 3-(4-Pyridyl)-L-alanine; SITE 17: note = Lysine is chemically modified through conjugation of the epsilon-amino group of the Lysine side chain with (gamma-Glu)2-CO-(CH2)1"}, "B8": {"name": "Example 668 (SEQ ID NO: 674) (peptide)", "chain": "B1 chain with Y25X, E39S, T41G", "modifications": "synthetic construct; SITE 2: note = 2-Aminoisobutyric Acid; SITE 6: note = alpha-methyl-2-fluoro-L-phenylalanine; SITE 10: note = 3-(4-Pyridyl)-L-alanine; SITE 17: note = Lysine is chemically modified through conjugation of the epsilon-amino group of the Lysine side chain with (gamma-Glu)2-CO-(CH2)1"}, "B9": {"name": "Example 667 (SEQ ID NO: 673) (peptide)", "chain": "B1 chain with Y25X, E39S, T41E", "modifications": "synthetic construct; SITE 2: note = 2-Aminoisobutyric Acid; SITE 6: note = alpha-methyl-2-fluoro-L-phenylalanine; SITE 10: note = 3-(4-Pyridyl)-L-alanine; SITE 17: note = Lysine is chemically modified through conjugation of the epsilon-amino group of the Lysine side chain with (gamma-Glu)2-CO-(CH2)1"}, "B10": {"name": "Example 669 (SEQ ID NO: 675) (peptide)", "chain": "B1 chain with Y25X, E39S", "modifications": "synthetic construct; SITE 2: note = 2-Aminoisobutyric Acid; SITE 6: note = alpha-methyl-2-fluoro-L-phenylalanine; SITE 10: note = 3-(4-Pyridyl)-L-alanine; SITE 17: note = Lysine is chemically modified through conjugation of the epsilon-amino group of the Lysine side chain with (2-[2-(2-Amino-ethoxy))"}, "B11": {"name": "Example 454 (peptide)", "chain": "YXQGTXTSDXSILLDXIAQXAFIKYLEEGGPSSGAPPPS", "modifications": "synthetic construct; SITE 2: note = 2-Aminoisobutyric Acid; SITE 6: note = alpha-methyl-2-fluoro-L-phenylalanine; SITE 10: note = 3-(4-Pyridyl)-L-alanine; SITE 16: note = L-ornithine; SITE 20: note = 2-Aminoisobutyric Acid; SITE 24: note = Lysine is chemically modified through conjugation of the eps"}, "B12": {"name": "Example 455 (peptide)", "chain": "B11 chain with X10Y, L13X, X16K", "modifications": "synthetic construct; SITE 2: note = 2-Aminoisobutyric Acid; SITE 6: note = alpha-methyl-2-fluoro-L-phenylalanine; SITE 13: note = alpha-methyl-leucine; SITE 20: note = 2-Aminoisobutyric Acid; SITE 24: note = Lysine is chemically modified through conjugation of the epsilon-amino group of the Lysine s"}, "B13": {"name": "Example 672 (SEQ ID NO: 678) (peptide)", "chain": "YXQGTXTSDXXIXLDXKAAXEFIEXLLEGGPSSGAPPPSGS", "modifications": "synthetic construct; SITE 2: note = 2-Aminoisobutyric Acid; SITE 6: note = alpha-methyl-2-fluoro-L-phenylalanine; SITE 10: note = 3-(4-Pyridyl)-L-alanine; SITE 11: note = alpha-methyl-L-serine; SITE 13: note = alpha-methyl-leucine; SITE 16: note = L-ornithine; SITE 17: note = Lysine is chemically mo"}}, "note": "Numbering of substitutions follows the chain as printed. Starred links: 1 amine or outer side, 2 acyl side, 3 side chain; linkers in the order of their positions; H or OH if unused. Non-standard residues stand in square brackets, D forms with d. Groups on a side chain read outwards from the residue. No end group written: not given here. *: point of attachment. C20 diacid = O=C(O)CCCCCCCCCCCCCCCCCCC(=O)*; γGlu = O=C(O)[C@H](CCC(=O)[*:2])N[*:1]; αMeL = CC(C)C[C@](C)(N)C(=O)O; AEEA = NCCOCCOCC(=O)O; Aib = CC(C)(N)C(=O)O"}
{"biological_target": "hGLP-1R (Homo sapiens, UniProt P43220)", "sequence (P43220 24-463)": "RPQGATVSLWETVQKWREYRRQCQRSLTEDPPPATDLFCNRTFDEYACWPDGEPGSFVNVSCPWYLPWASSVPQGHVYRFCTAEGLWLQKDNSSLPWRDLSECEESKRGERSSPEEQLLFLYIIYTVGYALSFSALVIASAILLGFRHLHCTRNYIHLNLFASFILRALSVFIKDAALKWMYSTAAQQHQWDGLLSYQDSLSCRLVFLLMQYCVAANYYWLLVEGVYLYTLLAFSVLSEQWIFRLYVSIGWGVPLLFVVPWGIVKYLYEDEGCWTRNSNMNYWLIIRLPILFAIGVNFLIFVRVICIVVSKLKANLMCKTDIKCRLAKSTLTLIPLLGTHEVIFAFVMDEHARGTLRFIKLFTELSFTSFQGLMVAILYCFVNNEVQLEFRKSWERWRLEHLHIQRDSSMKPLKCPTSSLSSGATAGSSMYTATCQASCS", "assay": "cell-based or functional assay", "units": {"Relative cAMP EC50": "nM", "Relative cAMP EC50, nM (0.1% casein)": "nM", "cAMP Rel EC50 (1% HSA)": "nM"}}
{"binder": "B1", "Relative cAMP EC50": 1.27}
{"binder": "B2", "Relative cAMP EC50": 0.284}
{"binder": "B3", "Relative cAMP EC50": 0.356}
{"binder": "B4", "Relative cAMP EC50": 0.946}
{"binder": "B5", "Relative cAMP EC50": 1.13}
{"binder": "B6", "Relative cAMP EC50": 1.29}
{"binder": "B7", "Relative cAMP EC50": 0.337}
{"binder": "B8", "Relative cAMP EC50": 0.325}
{"binder": "B9", "Relative cAMP EC50": 0.42}
{"binder": "B10", "Relative cAMP EC50": 0.27}
{"binder": "B11", "Relative cAMP EC50, nM (0.1% casein)": 0.821}
{"binder": "B12", "Relative cAMP EC50, nM (0.1% casein)": 0.49}
{"binder": "Y[Aib]QGTFTSDYSK[αMeL]LDKK([AEEA-γGlu-C20 diacid])AQQAFIEYLIAGGPSSGAPPPSSE-NH2", "note": "[Example 322]", "Relative cAMP EC50": 0.394, "cAMP Rel EC50 (1% HSA)": 135}
{"binder": "B13", "Relative cAMP EC50": 0.389}
{"binder": "Y[Aib]QGTFTSDYSKLLDKK([AEEA-γGlu-C20 diacid])AQ[Aib]AFVQWLIEGGPSSGEPPPSEG-NH2", "note": "[Example 316]", "Relative cAMP EC50": 0.362, "cAMP Rel EC50 (1% HSA)": 78.7}
{"biological_target": "T1, human GIP receptor (human) (UniProt P48546)", "T1 sequence (looked up)": "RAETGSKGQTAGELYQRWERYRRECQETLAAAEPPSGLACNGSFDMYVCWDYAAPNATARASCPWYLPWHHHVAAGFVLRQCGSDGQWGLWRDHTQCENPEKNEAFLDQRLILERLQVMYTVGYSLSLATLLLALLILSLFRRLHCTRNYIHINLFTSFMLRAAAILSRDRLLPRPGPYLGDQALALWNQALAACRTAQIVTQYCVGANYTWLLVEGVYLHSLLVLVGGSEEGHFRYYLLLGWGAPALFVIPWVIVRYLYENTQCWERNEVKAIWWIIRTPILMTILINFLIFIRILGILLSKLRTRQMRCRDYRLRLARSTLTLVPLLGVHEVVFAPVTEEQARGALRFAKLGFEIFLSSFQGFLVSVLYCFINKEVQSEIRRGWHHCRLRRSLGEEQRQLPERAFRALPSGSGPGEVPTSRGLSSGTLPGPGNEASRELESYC", "assay": "cell-based or functional assay", "units": {"Relative cAMP EC50": "nM", "Relative cAMP EC50, nM (0.1% casein)": "nM", "cAMP Rel EC50 (1% HSA)": "nM"}}
{"binder": "B1", "Relative cAMP EC50": 0.0646}
{"binder": "B2", "Relative cAMP EC50": 0.0223}
{"binder": "B3", "Relative cAMP EC50": 0.0159}
{"binder": "B4", "Relative cAMP EC50": 0.0704}
{"binder": "B5", "Relative cAMP EC50": 0.0665}
{"binder": "B6", "Relative cAMP EC50": 0.0893}
{"binder": "B7", "Relative cAMP EC50": 0.0203}
{"binder": "B8", "Relative cAMP EC50": 0.0198}
{"binder": "B9", "Relative cAMP EC50": 0.0217}
{"binder": "B10", "Relative cAMP EC50": 0.0145}
{"binder": "B11", "Relative cAMP EC50, nM (0.1% casein)": 0.0154}
{"binder": "B12", "Relative cAMP EC50, nM (0.1% casein)": 0.0182}
{"binder": "Y[Aib]QGTFTSDYSK[αMeL]LDKK([AEEA-γGlu-C20 diacid])AQQAFIEYLIAGGPSSGAPPPSSE-NH2", "note": "[Example 322]", "Relative cAMP EC50": 0.264, "cAMP Rel EC50 (1% HSA)": 89.3}
{"binder": "B13", "Relative cAMP EC50": 0.014}
{"binder": "Y[Aib]QGTFTSDYSKLLDKK([AEEA-γGlu-C20 diacid])AQ[Aib]AFVQWLIEGGPSSGEPPPSEG-NH2", "note": "[Example 316]", "Relative cAMP EC50": 0.259, "cAMP Rel EC50 (1% HSA)": 102}
{"biological_target": "human glucagon receptor (human) (UniProt P47871)", "sequence (P47871 26-477)": "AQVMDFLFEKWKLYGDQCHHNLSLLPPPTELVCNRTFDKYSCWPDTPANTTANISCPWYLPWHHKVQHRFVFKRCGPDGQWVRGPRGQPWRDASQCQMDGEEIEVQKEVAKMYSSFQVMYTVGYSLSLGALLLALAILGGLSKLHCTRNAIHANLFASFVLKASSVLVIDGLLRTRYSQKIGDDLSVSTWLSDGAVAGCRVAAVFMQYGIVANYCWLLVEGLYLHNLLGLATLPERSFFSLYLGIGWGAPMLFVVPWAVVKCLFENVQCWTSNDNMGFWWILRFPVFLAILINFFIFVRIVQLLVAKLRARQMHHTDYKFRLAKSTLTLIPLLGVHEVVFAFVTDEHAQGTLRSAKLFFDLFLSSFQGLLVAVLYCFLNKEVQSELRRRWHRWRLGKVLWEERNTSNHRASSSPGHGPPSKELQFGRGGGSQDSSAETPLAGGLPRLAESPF", "assay": "cell-based or functional assay", "units": {"Relative cAMP EC50": "nM", "Relative cAMP EC50, nM (0.1% casein)": "nM", "cAMP Rel EC50 (1% HSA)": "nM"}}
{"binder": "B1", "Relative cAMP EC50": 7.38}
{"binder": "B2", "Relative cAMP EC50": 2.94}
{"binder": "B3", "Relative cAMP EC50": 2.12}
{"binder": "B4", "Relative cAMP EC50": 4.81}
{"binder": "B5", "Relative cAMP EC50": 1.78}
{"binder": "B6", "Relative cAMP EC50": 1.95}
{"binder": "B7", "Relative cAMP EC50": 2}
{"binder": "B8", "Relative cAMP EC50": 2.03}
{"binder": "B9", "Relative cAMP EC50": 2.34}
{"binder": "B10", "Relative cAMP EC50": 1.76}
{"binder": "B11", "Relative cAMP EC50, nM (0.1% casein)": 9.11}
{"binder": "B12", "Relative cAMP EC50, nM (0.1% casein)": 4.36}
{"binder": "Y[Aib]QGTFTSDYSK[αMeL]LDKK([AEEA-γGlu-C20 diacid])AQQAFIEYLIAGGPSSGAPPPSSE-NH2", "note": "[Example 322]", "Relative cAMP EC50": 5.41, "cAMP Rel EC50 (1% HSA)": 2620}
{"binder": "B13", "Relative cAMP EC50": 1.19}
{"binder": "Y[Aib]QGTFTSDYSKLLDKK([AEEA-γGlu-C20 diacid])AQ[Aib]AFVQWLIEGGPSSGEPPPSEG-NH2", "note": "[Example 316]", "Relative cAMP EC50": 5.22, "cAMP Rel EC50 (1% HSA)": 2090}
